According to IntAct's records for PubMed 32296183:

B1: Very-long-chain enoyl-CoA reductase (Homo sapiens), Q9NZ01 (parent)
chain: MKHYEVEILDAKTREKLCFLDKVEPHATIAEIKNLFTKTHPQWYPARQSLRLDPKGKSLKDEDVLQKLPVGTTATLYFRDLGAQISWVTVFLTEYAGPLFIYLLFYFRVPFIYGHKYDFTSSRHTVVHLACICHSFHYIKRLLETLFVHRFSHGTMPLRNIFKNCTYYWGFAAWMAYYINHPLYTPPTYGAQQVKLALAIFVICQLGNFSIHMALRDLRPAGSKTRKIPYPTKNPFTWLFLLVSCPNYTYEVGSWIGFAIMTQCLPVALFSLVGFTQMTIWAKGKHRSYLKEFRDYPPLRMPIIPFLL
partner: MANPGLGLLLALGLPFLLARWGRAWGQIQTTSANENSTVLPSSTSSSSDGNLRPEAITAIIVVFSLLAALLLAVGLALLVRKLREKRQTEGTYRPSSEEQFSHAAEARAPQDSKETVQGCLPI
B2: Catenin alpha-3 (Homo sapiens), Q9UI47-2 (parent)
chain: MSAETPITLNIDPQDLQVQTFTVEKLLEPLIIQVTTLVNCPQNPSSRKKGRSKRASVLLASVEEATWNLLDKGEKIAQEATVLKDELTASLEEVRKESEALKVSAERFTDDPCFLPKREAVVQAARALLAAVTRLLILADMIDVMCLLQHVSAFQRTFESLKNVANKSDLQKTYQKLGKELENLDYLAFKRQQDLKSPNQRDEIAGARASLKENSPLLHSICSACLEHSDVASLKASKDTVCEEIQNALNVISNASQGIQNMTTPPEPQAATLGSALDELENLIVLNPLTVTEEEIRPSLEKRLEAIISGAALLADSSCTRDLHRERIIAECNAIRQALQDLLSEYMNNAGKKERSNTLNIALDNMCKKTRDLRRQLRKAIIDHVSDSFLDTTVPLLVLIEAAKNGREKEIKEYAAIFHEHTSRLVEVANLACSMSTNEDGIKIVKIAANHLETLCPQIINAALALAARPKSQAVKNTMEMYKRTWENHIHVLTEAVDDITSIDDFLAVSGMFLFF
partner: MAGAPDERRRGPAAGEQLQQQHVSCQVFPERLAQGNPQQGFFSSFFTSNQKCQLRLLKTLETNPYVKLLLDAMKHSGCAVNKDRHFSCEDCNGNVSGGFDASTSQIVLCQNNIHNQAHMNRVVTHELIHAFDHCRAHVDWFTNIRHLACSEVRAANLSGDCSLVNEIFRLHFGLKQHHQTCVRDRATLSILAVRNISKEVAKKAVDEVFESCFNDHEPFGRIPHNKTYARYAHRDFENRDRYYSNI
B3: Very-long-chain enoyl-CoA reductase (Homo sapiens), Q9NZ01 (parent)
chain: B1 chain

Variants of: B1
Conditions: with CRB3, Q9BUF7-2

Row | effect of a mutation on the interaction | Variant
1 | disrupting interaction strength | MKHYEVEILDAKTREKLCFLDKVEPHATIAEIKNLFTKTHPQWYPARQSLRLDPKGKSLKDEDVLQKLPVGTTATLYFRDLGAQISWVTVFLTEYAGPLFIYLLFYFRVPFIYGHKYDFTSSRHTVVHLACICHSFHYIKRLLETLFVHRFSHGTMPLRNIFKNCTYYWGFAAWMAYYINHLLYTPPTYGAQQVKLALAIFVICQLGNFSIHMALRDLRPAGSKTRKIPYPTKNPFTWLFLLVSCPNYTYEVGSWIGFAIMTQCLPVALFSLVGFTQMTIWAKGKHRSYLKEFRDYPPLRMPIIPFLL [P182L]

Variants of: B2
Conditions: with atp23_human ATP23, Q9Y6H3

Row | effect of a mutation on the interaction | Variant
2 | disrupting interaction strength | MSAETPITLNIDPQDLQVQTFTVEKLLEPLIIQVTTLVNCPQNPSSRKKGRSKRASVLLASVEEATWNLLDKGEKIAQEATVLKDELTASLEEDRKESEALKVSAERFTDDPCFLPKREAVVQAARALLAAVTRLLILADMIDVMCLLQHVSAFQRTFESLKNVANKSDLQKTYQKLGKELENLDYLAFKRQQDLKSPNQRDEIAGARASLKENSPLLHSICSACLEHSDVASLKASKDTVCEEIQNALNVISNASQGIQNMTTPPEPQAATLGSALDELENLIVLNPLTVTEEEIRPSLEKRLEAIISGAALLADSSCTRDLHRERIIAECNAIRQALQDLLSEYMNNAGKKERSNTLNIALDNMCKKTRDLRRQLRKAIIDHVSDSFLDTTVPLLVLIEAAKNGREKEIKEYAAIFHEHTSRLVEVANLACSMSTNEDGIKIVKIAANHLETLCPQIINAALALAARPKSQAVKNTMEMYKRTWENHIHVLTEAVDDITSIDDFLAVSGMFLFF [V94D]

Variants of: B3
Conditions: with ergi3_human ERGIC3, Q9Y282
Chain of ergi3_human ERGIC3, Q9Y282 (Q9Y282 whole entry): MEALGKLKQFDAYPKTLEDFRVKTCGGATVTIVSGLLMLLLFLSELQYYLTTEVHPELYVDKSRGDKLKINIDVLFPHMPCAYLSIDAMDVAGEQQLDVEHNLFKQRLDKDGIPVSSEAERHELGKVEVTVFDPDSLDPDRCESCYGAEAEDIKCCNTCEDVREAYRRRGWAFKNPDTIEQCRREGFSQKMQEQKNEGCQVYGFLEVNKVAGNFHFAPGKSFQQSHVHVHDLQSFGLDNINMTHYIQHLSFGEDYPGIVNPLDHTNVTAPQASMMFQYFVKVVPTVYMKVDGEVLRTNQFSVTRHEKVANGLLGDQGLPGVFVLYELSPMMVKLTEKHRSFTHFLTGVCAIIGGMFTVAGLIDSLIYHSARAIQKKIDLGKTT

Row | effect of a mutation on the interaction | Variant
3 | disrupting interaction strength | MKHYEVEILDAKTREKLCFLDKVEPHATIAEIKNLFTKTHPQWYPARQSLRLDPKGKSLKDEDVLQKLPVGTTATLYFRDLGAQISWVTVFLTEYAGPLFIYLLFYFRVPFIYGHKYDFTSSRHTVVHLACICHSFHYIKRLLETLFVHRFSHGTMPLRNIFKNCTYYWGFAAWMAYYINHLLYTPPTYGAQQVKLALAIFVICQLGNFSIHMALRDLRPAGSKTRKIPYPTKNPFTWLFLLVSCPNYTYEVGSWIGFAIMTQCLPVALFSLVGFTQMTIWAKGKHRSYLKEFRDYPPLRMPIIPFLL [P182L]

Variants of: B3
Conditions: with cd79a_human CD79A

Row | effect of a mutation on the interaction | Variant
4 | disrupting interaction strength | MKHYEVEILDAKTREKLCFLDKVEPHATIAEIKNLFTKTHPQWYPARQSLRLDPKGKSLKDEDVLQKLPVGTTATLYFRDLGAQISWVTVFLTEYAGPLFIYLLFYFRVPFIYGHKYDFTSSRHTVVHLACICHSFHYIKRLLETLFVHRFSHGTMPLRNIFKNCTYYWGFAAWMAYYINHLLYTPPTYGAQQVKLALAIFVICQLGNFSIHMALRDLRPAGSKTRKIPYPTKNPFTWLFLLVSCPNYTYEVGSWIGFAIMTQCLPVALFSLVGFTQMTIWAKGKHRSYLKEFRDYPPLRMPIIPFLL [P182L]

Variants of: B3
Conditions: with MUC1, P15941-11
Chain of MUC1, P15941-11 (P15941 other isoform, or with tags, fused parts or gaps): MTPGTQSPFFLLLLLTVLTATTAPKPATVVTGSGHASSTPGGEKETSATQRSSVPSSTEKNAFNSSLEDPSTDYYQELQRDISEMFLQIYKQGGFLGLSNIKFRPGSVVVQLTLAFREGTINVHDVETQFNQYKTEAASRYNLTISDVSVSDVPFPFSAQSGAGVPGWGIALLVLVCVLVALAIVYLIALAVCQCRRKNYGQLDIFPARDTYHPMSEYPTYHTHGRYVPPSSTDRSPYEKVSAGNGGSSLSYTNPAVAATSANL

Row | effect of a mutation on the interaction | Variant
5 | disrupting interaction strength | MKHYEVEILDAKTREKLCFLDKVEPHATIAEIKNLFTKTHPQWYPARQSLRLDPKGKSLKDEDVLQKLPVGTTATLYFRDLGAQISWVTVFLTEYAGPLFIYLLFYFRVPFIYGHKYDFTSSRHTVVHLACICHSFHYIKRLLETLFVHRFSHGTMPLRNIFKNCTYYWGFAAWMAYYINHLLYTPPTYGAQQVKLALAIFVICQLGNFSIHMALRDLRPAGSKTRKIPYPTKNPFTWLFLLVSCPNYTYEVGSWIGFAIMTQCLPVALFSLVGFTQMTIWAKGKHRSYLKEFRDYPPLRMPIIPFLL [P182L]

Variants of: B3
Conditions: with ar13b_human ARL13B

Row | effect of a mutation on the interaction | Variant
6 | disrupting interaction strength | MKHYEVEILDAKTREKLCFLDKVEPHATIAEIKNLFTKTHPQWYPARQSLRLDPKGKSLKDEDVLQKLPVGTTATLYFRDLGAQISWVTVFLTEYAGPLFIYLLFYFRVPFIYGHKYDFTSSRHTVVHLACICHSFHYIKRLLETLFVHRFSHGTMPLRNIFKNCTYYWGFAAWMAYYINHLLYTPPTYGAQQVKLALAIFVICQLGNFSIHMALRDLRPAGSKTRKIPYPTKNPFTWLFLLVSCPNYTYEVGSWIGFAIMTQCLPVALFSLVGFTQMTIWAKGKHRSYLKEFRDYPPLRMPIIPFLL [P182L]

Variants of: B3
Conditions: with SLC7A14, Q8TBB6
Chain of SLC7A14, Q8TBB6 (Q8TBB6 whole entry): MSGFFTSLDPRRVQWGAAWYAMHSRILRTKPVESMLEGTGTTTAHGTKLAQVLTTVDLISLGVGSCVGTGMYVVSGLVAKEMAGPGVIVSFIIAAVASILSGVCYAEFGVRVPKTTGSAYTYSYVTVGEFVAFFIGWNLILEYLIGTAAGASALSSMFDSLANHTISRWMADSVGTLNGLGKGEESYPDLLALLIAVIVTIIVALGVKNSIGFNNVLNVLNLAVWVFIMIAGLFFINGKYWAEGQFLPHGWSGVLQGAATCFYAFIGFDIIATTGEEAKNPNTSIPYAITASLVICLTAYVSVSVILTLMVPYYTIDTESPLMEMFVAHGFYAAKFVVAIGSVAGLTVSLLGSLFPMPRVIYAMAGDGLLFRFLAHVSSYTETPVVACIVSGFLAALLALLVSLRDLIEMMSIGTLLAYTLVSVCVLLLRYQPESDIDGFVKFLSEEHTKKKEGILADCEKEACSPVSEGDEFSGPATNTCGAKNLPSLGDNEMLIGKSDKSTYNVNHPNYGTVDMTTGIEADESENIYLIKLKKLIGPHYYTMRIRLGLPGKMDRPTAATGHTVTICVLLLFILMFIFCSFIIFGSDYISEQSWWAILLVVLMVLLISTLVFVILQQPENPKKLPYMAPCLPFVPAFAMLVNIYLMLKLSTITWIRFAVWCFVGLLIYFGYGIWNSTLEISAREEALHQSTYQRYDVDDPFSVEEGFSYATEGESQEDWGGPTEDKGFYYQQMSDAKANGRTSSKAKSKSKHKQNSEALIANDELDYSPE

Row | effect of a mutation on the interaction | Variant
7 | disrupting interaction strength | MKHYEVEILDAKTREKLCFLDKVEPHATIAEIKNLFTKTHPQWYPARQSLRLDPKGKSLKDEDVLQKLPVGTTATLYFRDLGAQISWVTVFLTEYAGPLFIYLLFYFRVPFIYGHKYDFTSSRHTVVHLACICHSFHYIKRLLETLFVHRFSHGTMPLRNIFKNCTYYWGFAAWMAYYINHLLYTPPTYGAQQVKLALAIFVICQLGNFSIHMALRDLRPAGSKTRKIPYPTKNPFTWLFLLVSCPNYTYEVGSWIGFAIMTQCLPVALFSLVGFTQMTIWAKGKHRSYLKEFRDYPPLRMPIIPFLL [P182L]

Variants of: B3
Conditions: with sting_human STING1, Q86WV6
Chain of sting_human STING1, Q86WV6 (Q86WV6 whole entry): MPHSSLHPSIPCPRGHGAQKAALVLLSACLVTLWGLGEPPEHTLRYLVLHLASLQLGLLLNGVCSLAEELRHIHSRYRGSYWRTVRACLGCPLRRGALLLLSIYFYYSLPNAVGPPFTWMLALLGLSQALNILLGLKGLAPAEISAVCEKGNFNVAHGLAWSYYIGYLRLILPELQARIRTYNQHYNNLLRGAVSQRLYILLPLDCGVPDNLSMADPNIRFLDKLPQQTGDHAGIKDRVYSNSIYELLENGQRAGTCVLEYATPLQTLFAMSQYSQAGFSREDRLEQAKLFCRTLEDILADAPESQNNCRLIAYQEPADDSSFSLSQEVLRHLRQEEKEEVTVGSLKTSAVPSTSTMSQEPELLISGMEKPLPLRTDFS

Row | effect of a mutation on the interaction | Variant
8 | with no effect | MKHYEVEILDAKTREKLCFLDKVEPHATIAEIKNLFTKTHPQWYPARQSLRLDPKGKSLKDEDVLQKLPVGTTATLYFRDLGAQISWVTVFLTEYAGPLFIYLLFYFRVPFIYGHKYDFTSSRHTVVHLACICHSFHYIKRLLETLFVHRFSHGTMPLRNIFKNCTYYWGFAAWMAYYINHLLYTPPTYGAQQVKLALAIFVICQLGNFSIHMALRDLRPAGSKTRKIPYPTKNPFTWLFLLVSCPNYTYEVGSWIGFAIMTQCLPVALFSLVGFTQMTIWAKGKHRSYLKEFRDYPPLRMPIIPFLL [P182L]
